PMC10006238

Assays:
[1] = target: VirD (Streptomyces virginiae); assay: SAXS; SEC-coupled SAXS (SWING beamline, Bio-SEC 100 Å column), 15 °C, 20 mM Tris-HCl pH 8.5, 300 mM NaCl, 5% glycerol, 50 μL at 5 mg/mL; curves compared with crystal structures or models (CRYSOL, SASREF)
[2] = target: VirD (Streptomyces virginiae); assay: other fluorescence titration; tryptophan fluorescence quenching; VirC, VirD, VirD mutant or VirE at 5 μM in TE buffer (20 mM Tris-HCl pH 8.5, 2 mM EDTA), 25 °C, titrated with ACP ligand (0–150 μM); excitation 295 nm; one site-specific binding model; averaged data of two independent measurements
[3] = target: VirE (Streptomyces virginiae); assay: as above
[4] = target: VirC (Streptomyces virginiae); assay: as above
[5] = target: Se-VirD (Streptomyces virginiae); assay: crystal structure; holo-ACP5b–Se-VirD complex, hanging drop, ratio 1:4, 100 mM calcium chloride, 30% PEG 1500, 10% 2-propanol, 100 mM imidazole-HCl pH 6.5; space group H3; 2.1 Å
[6] = target: Se-VirD (Streptomyces virginiae); assay: crystal structure; Se-VirD alone, 20% PEG 400, 20% PEG 800, 100 mM Tris-HCl pH 7.5; space group P4(1)2(1)2; Se-SAD, 1.7 Å
[7] = target: VirE (Streptomyces virginiae); assay: SAXS; SEC-coupled SAXS (SWING beamline, Bio-SEC 100 Å column), 15 °C, 20 mM Tris-HCl pH 8.5, 300 mM NaCl, 5% glycerol, 50 μL at 5 mg/mL; curves compared with crystal structures or models (CRYSOL, SASREF)
[8] = target: VirD E128Q (Streptomyces virginiae); assay: other fluorescence titration; tryptophan fluorescence quenching; VirC, VirD, VirD mutant or VirE at 5 μM in TE buffer (20 mM Tris-HCl pH 8.5, 2 mM EDTA), 25 °C, titrated with ACP ligand (0–150 μM); excitation 295 nm; one site-specific binding model; averaged data of two independent measurements

| Kd [2] [µM] | Kd [3] [µM] | Kd [4] [µM] | Molecule | other results |
| --- | --- | --- | --- | --- |
|  |  |  | VirD (enzyme) | stoichiometry N [1]: 3 |
| 4.3 | 22 | 18 | holo-ACP7 (domain or fragment) |  |
|  |  |  | Se-VirD (enzyme) | stoichiometry N [5]: 3; stoichiometry N [6]: 3 |
|  |  |  | VirE (enzyme) | stoichiometry N [7]: 3 |
| 13 |  | 13 | holo-Sna ACP7 (domain or fragment) |  |
| 75 | 301 | 75 | apo-ACP7 (domain or fragment) |  |
| 166 |  | 78 | apo-Sna ACP7 (domain or fragment) |  |
| 19 | 42 | 17 | holo-ACP5a-ACP5b didomain (domain or fragment) |  |
| 102 | 653 | 166 | apo-ACP5a (domain or fragment) GPGSAGRQEEIAEEVARLLAGVLYLEPDRLDPEETFLTLGVDSILGVEFVAAVNAAYPVGVKATALYDHPTPAAFARHIAESLGA |  |
| 186 |  | 108 | apo-ACP5a E6761A (domain or fragment) GPGSAGRQEEIAEEVARLLAGVLYLEPDRLDPEATFLTLGVDSILGVEFVAAVNAAYPVGVKATALYDHPTPAAFARHIAESLGA |  |
|  | 287 |  | methylcrotonyl-ACP5a (domain or fragment, methylcrotonyl form (3-methylcrotonate as substrate mimic on the phosphopantetheine)) GPGSAGRQEEIAEEVARLLAGVLYLEPDRLDPEETFLTLGVDSILGVEFVAAVNAAYPVGVKATALYDHPTPAAFARHIAESLGA |  |
| 4.1 |  | 11 | holo-ACP5a L6764N (domain or fragment, phosphopantetheine (holo form)) GPGSAGRQEEIAEEVARLLAGVLYLEPDRLDPEETFNTLGVDSILGVEFVAAVNAAYPVGVKATALYDHPTPAAFARHIAESLGA |  |
| 83 |  | 89 | apo-ACP5a L6764N (domain or fragment) GPGSAGRQEEIAEEVARLLAGVLYLEPDRLDPEETFNTLGVDSILGVEFVAAVNAAYPVGVKATALYDHPTPAAFARHIAESLGA |  |
| 117 |  | 61 | apo-ACP5a E6761A/L6764N (domain or fragment) GPGSAGRQEEIAEEVARLLAGVLYLEPDRLDPEATFNTLGVDSILGVEFVAAVNAAYPVGVKATALYDHPTPAAFARHIAESLGA |  |
| 51 |  |  | HMG-ACP5a (domain or fragment, HMG form ((RS)-3-hydroxy-3-methylglutarate as substrate mimic on the phosphopantetheine)) GPGSAGRQEEIAEEVARLLAGVLYLEPDRLDPEETFLTLGVDSILGVEFVAAVNAAYPVGVKATALYDHPTPAAFARHIAESLGA |  |
| 7 |  | 10 | holo-ACP5a E6761A/L6764N (domain or fragment, phosphopantetheine (holo form)) GPGSAGRQEEIAEEVARLLAGVLYLEPDRLDPEATFNTLGVDSILGVEFVAAVNAAYPVGVKATALYDHPTPAAFARHIAESLGA |  |
|  |  | 40 | acetoacetyl-ACP5a (domain or fragment, acetoacetyl form (acetoacetate as substrate mimic on the phosphopantetheine)) GPGSAGRQEEIAEEVARLLAGVLYLEPDRLDPEETFLTLGVDSILGVEFVAAVNAAYPVGVKATALYDHPTPAAFARHIAESLGA |  |
| 6.1 |  | 4.7 | holo-ACP5a E6761A (domain or fragment, phosphopantetheine (holo form)) GPGSAGRQEEIAEEVARLLAGVLYLEPDRLDPEATFLTLGVDSILGVEFVAAVNAAYPVGVKATALYDHPTPAAFARHIAESLGA |  |
|  |  | 4.3 | acetoacetyl-ACP5b (domain or fragment, acetoacetyl form (acetoacetate as substrate mimic on the phosphopantetheine)) GPGSAVAVDPAPVARALREELARTLYCEPGDIDDEASFNTLGLDSILGVEFVAFVNQTYGLDEKAGILYDHPSLAALSRHVAGRAAPV |  |
| 178 | 171 | 77 | apo-ACP5b (domain or fragment) GPGSAVAVDPAPVARALREELARTLYCEPGDIDDEASFNTLGLDSILGVEFVAFVNQTYGLDEKAGILYDHPSLAALSRHVAGRAAPV |  |
|  | 30 |  | methylcrotonyl-ACP5b (domain or fragment, methylcrotonyl form (3-methylcrotonate as substrate mimic on the phosphopantetheine)) GPGSAVAVDPAPVARALREELARTLYCEPGDIDDEASFNTLGLDSILGVEFVAFVNQTYGLDEKAGILYDHPSLAALSRHVAGRAAPV |  |
| 2.9 | 6.8 | 3.8 | holo-ACP5b (domain or fragment, phosphopantetheine (Ppant) on S6871) GPGSAVAVDPAPVARALREELARTLYCEPGDIDDEASFNTLGLDSILGVEFVAFVNQTYGLDEKAGILYDHPSLAALSRHVAGRAAPV |  |
| 39 |  |  | HMG-ACP5b (domain or fragment, HMG form ((RS)-3-hydroxy-3-methylglutarate as substrate mimic on the phosphopantetheine)) GPGSAVAVDPAPVARALREELARTLYCEPGDIDDEASFNTLGLDSILGVEFVAFVNQTYGLDEKAGILYDHPSLAALSRHVAGRAAPV | Kd [8]: 33 µM |
